Results as given in patent US7879563B2, “Method of screening for a carnitine transporter agonist or antagonist and its uses” (Sanofi-Aventis Deutschland GmbH, priority 2004, dated 2011).

Substrate: C[N+](C)(C)C[C@H](O)CC(=O)[O-]
Test: Tracer flux transport measurement in Xenopus laevis oocytes injected with cRNA comprising SEQ ID NO: 4
Format: cell-based, human
Details: other: concentration dependency of L-carnitine transport, Michaelis-Menten, uptake measured for 1 hour, FIG. 2
Description: The transport measurements of radioactively labeled compounds were executed using Xenopus laevis oocytes in the so-called “tracer flux method”, wherein the transport rate of substrates across the oocyte membrane into the cytosol is determined.
A Xenopus laevis oocyte was injected with a cRNA molecule comprising SEQ ID NO: 4.
Injected oocytes were kept in the culture medium ORi comprising gentamycin (50 mg/L) at 18° C. until the measurement of substrate uptake. Injured, acutely altered or later heavily damaged cells were discarded.
After 72 hours the oocyte was used for screening for a carnitine transporter agonist or antagonist. […]
The oocytes were washed four times in 15 ml ice cold ORi. […] The radioactivity of the lysates was determined in a liquid scintillation counter comprising a correction for the luminescence and an external standard. Each vial was counted for 5 minutes. […]
For the determination of concentration-dependent substrate uptake serial dilutions of the investigated substrate were prepared and the radioactivity was distributed, such that in each reaction mixture between 10000 and 20000 cpm were counted in the supernatant. For the KM determination the substrate uptake was measured for 1 hour. […] The transport rates were calculated and graphically plotted against the substrate concentration and adapted mathematically according to the Michaelis-Menten equation.

B1: carnitine transporter comprising the amino acid sequence SEQ ID NO: 1 (Homo sapiens) (protein)
chain: MVRLVLPNPGLDARIPSLAELETIEQEEASSRPKWDNKAQYMLTCLGFCVGLGNVWRFPYLCQSHGGGAFMIPFLILLVLEGIPLLYLEFAIGQRLRRGSLGVWSSIHPALKGLGLASMLTSFMVGLYYNTIISWIMWYLFNSFQEPLPWSDCPLNENQTGYVDECARSSPVDYFWYRETLNISTSISDSGSIQWWMLLCLACAWSVLYMCTIRGIETTGKAVYITSTLPYVVLTIFLIRGLTLKGATNGIVFLFTPNVTELAQPDTWLDAGAQVFFSFSLAFGGLISFSSYNSVHNNCEKDSVIVSIINGFTSVYVAIVVYSVIGFRATQRYDDCFSTNILTLINGFDLPEGNVTQENFVDMQQRCNASDPAAYAQLVFQTCDINAFLSEAVEGTGLAFIVFTEAITKMPLSPLWSVLFFIMLFCLGLSSMFGNMEGVVVPLQDLRVIPPKWPKEVLTGLICLGTFLIGFIFTLNSGQYWLSLLDSYAGSIPLLIIAFCEMFSVVYVYGVDRFNKDIEFMIGHKPNIFWQVTWRVVSPLLMLIIFLFFFVVEVSQELTYSIWDPGYEEFPKSQKISYPNWVYVVVVIVAGVPSLTIPGYAIYKLIRNHCQKPGDHQGLVSTLSTASMNGDLKY
notes: expressed in transfected cells; host or cells: Xenopus laevis oocytes injected with cRNA
  Km: 15 µM
